Source: patent US20090068214A1

Biological target: HLA-A2 on T2 cells, P30376

Question: How did the peptide concentration at fluorescence index (FI) 0.5 turn out when ALQAIELQL (modifications not checked) [HPV 16 E2 69-77 peptide (…)] was run?
Answer: The peptide concentration at fluorescence index (FI) 0.5 was 50 µM.
